± gives the uncertainty stated by the source.
B1: Homeobox protein SIX6, residues 134 to 184; numbered along this chain, O95475 (parent)
chain: CFKERTRHLLREWYLQDPYPNPSKKRELAQATGLTPTQVGNWFKNRRQRDR

Variants of: B1
Assay: abundance fitness (aPCA) (normalised: wild type 0, dead -1); higher = more abundant; growth selection in yeast, the domain comes from the species named
Conditions: Homo sapiens

**Q.** For CFKERTRHLLREWYLQDPYPVPSKKRELAQATGLTPTQVGNWFKNRRQRDR [N21V], which abundance fitness is on record?
**A.** -0.199 ± 0.1

**Q.** Which abundance fitness does the source give for CFKERTRHLLREWYLQDPYPAPSKKRELAQATGLTPTQVGNWFKNRRQRDR [N21A] here?
**A.** -0.222 ± 0.099

**Q.** For CFKERTRHLLREWYLQDPYPNPSKKRELAQATGLTPTQVGNWFKNRRQRGR [D50G], which abundance fitness is on record?
**A.** -0.607 ± 0.093

**Q.** Which abundance fitness does the source give for CFKERTRHLLREWYLQDPYPNPSKKRELAQATGLTPTQVGNWFKNRRQRCR [D50C] here?
**A.** -0.73 ± 0.14

**Q.** Which abundance fitness does the source give for CFKERTRHLLRHWYLQDPYPNPSKKRELAQATGLTPTQVGNWFKNRRQRDR [E12H] here?
**A.** -0.455 ± 0.25

**Q.** For CFKERTRHLLRVWYLQDPYPNPSKKRELAQATGLTPTQVGNWFKNRRQRDR [E12V], which abundance fitness is on record?
**A.** -0.389 ± 0.057

**Q.** Which abundance fitness does the source give for CFKERTRHLLREWYLQDPYPNPSKKRELAQATGLTPTQVGNWFKNVRQRDR [R46V] here?
**A.** -0.465 ± 0.06

**Q.** For CFKERTRHLLREWYLQDPYPNPKKKRELAQATGLTPTQVGNWFKNRRQRDR [S23K], which abundance fitness is on record?
**A.** -0.529 ± 0.092

**Q.** For CFKERTRHLLREWYLQDPYPNPDKKRELAQATGLTPTQVGNWFKNRRQRDR [S23D], which abundance fitness is on record?
**A.** 0.038 ± 0.13

**Q.** For CFKERTRHLLREWYRQDPYPNPSKKRELAQATGLTPTQVGNWFKNRRQRDR [L15R], which abundance fitness is on record?
**A.** -0.106 ± 0.056

**Q.** Which abundance fitness does the source give for CFKERTRHLLREWVLQDPYPNPSKKRELAQATGLTPTQVGNWFKNRRQRDR [Y14V] here?
**A.** -0.838 ± 0.095

**Q.** For CFKERTRHLLREWFLQDPYPNPSKKRELAQATGLTPTQVGNWFKNRRQRDR [Y14F], which abundance fitness is on record?
**A.** -0.071 ± 0.06

**Q.** For CFKERTRHLLREWYLQDPYPNPSKKRELAQATCLTPTQVGNWFKNRRQRDR [G33C], which abundance fitness is on record?
**A.** -0.757 ± 0.081

**Q.** With CFKERTRHLLREWYLQEPYPNPSKKRELAQATGLTPTQVGNWFKNRRQRDR [D17E] as the variant, how does the abundance fitness read?
**A.** -0.643 ± 0.15

**Q.** Which abundance fitness does the source give for CFKERTRHLLREWYLQFPYPNPSKKRELAQATGLTPTQVGNWFKNRRQRDR [D17F] here?
**A.** -0.829 ± 0.11

**Q.** Which abundance fitness does the source give for CFKERTRHLLREWYLQIPYPNPSKKRELAQATGLTPTQVGNWFKNRRQRDR [D17I] here?
**A.** -1.01 ± 0.16

**Q.** Which abundance fitness does the source give for CFKERTRHLLREWYLQDPYPNPSKKREMAQATGLTPTQVGNWFKNRRQRDR [L28M] here?
**A.** -0.04 ± 0.075

**Q.** For CFKERTRHLLREWYLQDPYPNPSKKREPAQATGLTPTQVGNWFKNRRQRDR [L28P], which abundance fitness is on record?
**A.** -0.958 ± 0.26

**Q.** Which abundance fitness does the source give for CFKERTRHLLREWYLQDPYPNPSKKRELAQATGLTPTQVGNWFKFRRQRDR [N45F] here?
**A.** -0.712 ± 0.23

**Q.** With CFKERTRHLLREWYLQDPYPNPSKKRELAQATGLTYTQVGNWFKNRRQRDR [P36Y] as the variant, how does the abundance fitness read?
**A.** 0.372 ± 0.061

**Q.** With CFKERTRHLLREWYLQDPYPNPSKKRELAQATGLTETQVGNWFKNRRQRDR [P36E] as the variant, how does the abundance fitness read?
**A.** 0.065 ± 0.057

**Q.** Which abundance fitness does the source give for CFAERTRHLLREWYLQDPYPNPSKKRELAQATGLTPTQVGNWFKNRRQRDR [K3A] here?
**A.** -0.19 ± 0.059

**Q.** Which abundance fitness does the source give for CFKERTRHLLREWYLQDPYPNVSKKRELAQATGLTPTQVGNWFKNRRQRDR [P22V] here?
**A.** -0.682 ± 0.16

**Q.** For CFKERTRHLLREWYLQDPYPNSSKKRELAQATGLTPTQVGNWFKNRRQRDR [P22S], which abundance fitness is on record?
**A.** 0.015 ± 0.081

**Q.** For CFKERTRHLLREWYLQDPYPNPSKKRELAQATGLTPTQVGNQFKNRRQRDR [W42Q], which abundance fitness is on record?
**A.** -0.726 ± 0.29

**Q.** With CFKVRTRHLLREWYLQDPYPNPSKKRELAQATGLTPTQVGNWFKNRRQRDR [E4V] as the variant, how does the abundance fitness read?
**A.** -0.5 ± 0.095

**Q.** With CMKERTRHLLREWYLQDPYPNPSKKRELAQATGLTPTQVGNWFKNRRQRDR [F2M] as the variant, how does the abundance fitness read?
**A.** 0.192 ± 0.093

**Q.** With CDKERTRHLLREWYLQDPYPNPSKKRELAQATGLTPTQVGNWFKNRRQRDR [F2D] as the variant, how does the abundance fitness read?
**A.** 0.05 ± 0.091

**Q.** With CHKERTRHLLREWYLQDPYPNPSKKRELAQATGLTPTQVGNWFKNRRQRDR [F2H] as the variant, how does the abundance fitness read?
**A.** -0.013 ± 0.11

**Q.** Which abundance fitness does the source give for CYKERTRHLLREWYLQDPYPNPSKKRELAQATGLTPTQVGNWFKNRRQRDR [F2Y] here?
**A.** -0.11 ± 0.14

**Q.** With CFKERTRHLLREWYLQDPYPNPSKKRELAQATGLTPTQVGNWGKNRRQRDR [F43G] as the variant, how does the abundance fitness read?
**A.** -0.577 ± 0.079

**Q.** For CFKERTRHLLREWYLQDPYPNPSKKRELAQATGLTPTQVGRWFKNRRQRDR [N41R], which abundance fitness is on record?
**A.** 0.155 ± 0.049

**Q.** For CFKERTRHLLREWYLQDPYPNPSKKRELAQATGLTPTQVGGWFKNRRQRDR [N41G], which abundance fitness is on record?
**A.** -0.627 ± 0.065

**Q.** Which abundance fitness does the source give for CFKERTRHLLHEWYLQDPYPNPSKKRELAQATGLTPTQVGNWFKNRRQRDR [R11H] here?
**A.** -0.487 ± 0.23

**Q.** For CFKERTRHLLAEWYLQDPYPNPSKKRELAQATGLTPTQVGNWFKNRRQRDR [R11A], which abundance fitness is on record?
**A.** -0.379 ± 0.1

**Q.** With CFKERTRHLLREWYLQDPYPNPSKKRELAQMTGLTPTQVGNWFKNRRQRDR [A31M] as the variant, how does the abundance fitness read?
**A.** -0.008 ± 0.086

**Q.** For CFKERTAHLLREWYLQDPYPNPSKKRELAQATGLTPTQVGNWFKNRRQRDR [R7A], which abundance fitness is on record?
**A.** 0.033 ± 0.053

**Q.** For CFKERTIHLLREWYLQDPYPNPSKKRELAQATGLTPTQVGNWFKNRRQRDR [R7I], which abundance fitness is on record?
**A.** 0.073 ± 0.059

**Q.** With CFKEVTRHLLREWYLQDPYPNPSKKRELAQATGLTPTQVGNWFKNRRQRDR [R5V] as the variant, how does the abundance fitness read?
**A.** -0.315 ± 0.15

**Q.** With CFKERTRHLLREWYLQDPYPNPSKKRELAQATGLMPTQVGNWFKNRRQRDR [T35M] as the variant, how does the abundance fitness read?
**A.** -0.703 ± 0.066

**Q.** With CFKERTRHLLREWYLQDPYPNPSKKRELAQATGDTPTQVGNWFKNRRQRDR [L34D] as the variant, how does the abundance fitness read?
**A.** -0.936 ± 0.087

**Q.** For CFKERTRHLLREWYLQDPYPNPSNKRELAQATGLTPTQVGNWFKNRRQRDR [K24N], which abundance fitness is on record?
**A.** -0.281 ± 0.099

**Q.** Which abundance fitness does the source give for CFKERTRHLLREWYLQDPYPNPSVKRELAQATGLTPTQVGNWFKNRRQRDR [K24V] here?
**A.** -0.13 ± 0.076

**Q.** For CFKERCRHLLREWYLQDPYPNPSKKRELAQATGLTPTQVGNWFKNRRQRDR [T6C], which abundance fitness is on record?
**A.** -0.76 ± 0.23

**Q.** With CFKERTRHLLREWYLQDPYPNPSKKRELADATGLTPTQVGNWFKNRRQRDR [Q30D] as the variant, how does the abundance fitness read?
**A.** -0.064 ± 0.085

**Q.** Which abundance fitness does the source give for CFKERTRHNLREWYLQDPYPNPSKKRELAQATGLTPTQVGNWFKNRRQRDR [L9N] here?
**A.** -0.827 ± 0.066

**Q.** Which abundance fitness does the source give for CFKERTRHLLREWYLQDPYPNPSKKRDLAQATGLTPTQVGNWFKNRRQRDR [E27D] here?
**A.** -0.194 ± 0.073

**Q.** With CFKERTRHLLREWYLQDPYINPSKKRELAQATGLTPTQVGNWFKNRRQRDR [P20I] as the variant, how does the abundance fitness read?
**A.** -0.466 ± 0.23

**Q.** With CFKERTRHLLREWYLQDPMPNPSKKRELAQATGLTPTQVGNWFKNRRQRDR [Y19M] as the variant, how does the abundance fitness read?
**A.** -0.312 ± 0.092

**Q.** For CFKERTRHLLREWYLQDPGPNPSKKRELAQATGLTPTQVGNWFKNRRQRDR [Y19G], which abundance fitness is on record?
**A.** -0.867 ± 0.097

**Q.** For CFKERTRHLLREWYLQDPYPNPSKKRELAQATGLTPTQVGNWFKNRGQRDR [R47G], which abundance fitness is on record?
**A.** -0.762 ± 0.059

Reference: the Human Domainome abundance scans (Beltran et al. 2025)
